Ratio to parent data for 1 substance are collected here from paper PMC9576728.

One test deals with POU2F3 (UniProt Q9UKI9). Kind of test: co-immunoprecipitation (IP:HA) and western blot, quantified. The conditions noted are these: HEK293T cells, IP:HA lanes, parent: 1. A general note: Immunoblotting shows a protein as a band on a membrane.
In another test the target is FLAG-POU2F3 (UniProt Q9UKI9). The test is described as follows: co-immunoprecipitation (IP:FLAG) and western blot, quantified. The conditions noted are these: HEK293T cells, IP:FLAG lanes, parent: 1.

On to “HA-COLCA2 (WT) (from UniProt A8K830) VKELL>DAAPP (V>D; K>A; E>A; L>P; L>P; residue numbers not printed)”, for which the ratio to parent with POU2F3 (normalised POU2F3/COLCA2 ratio) turned out to be 0.37; with POU2F3 (raw POU2F3 band (untagged control lane 0.29; HA bait band WT 1, DAAPP 1.44)) it was 0.53; in the test with FLAG-POU2F3 (normalised COLCA2/POU2F3 ratio), 0.52; in the test with FLAG-POU2F3 (raw HA band (V5-POU2F3 control lane 0; FLAG bait band WT 1, DAAPP 1.07, V5 control 0.09)), 0.56.
